This is an account of results in patent publication US20190100588A1 (VISTERRA, published 2019).

The term EC50 denotes the concentration needed to bring the measured effect to its halfway point.

Assay [1] deals with T1, Peptide 6B (human, biotin at the amino terminus).
T1 construct: also called Pep6b
T1 peptide: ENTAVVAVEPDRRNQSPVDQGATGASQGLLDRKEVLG
The assay can be described thus: bio-layer interferometry, biotinylated peptide.

The next assay addresses T2, mutated CD138 Clone 1 (human, UniProt P18827 23-310).
T2 construct: Leu107, Pro108, Glu109 of the original site mutated to Ala; Expressed on Expi293 cells
T2 chain: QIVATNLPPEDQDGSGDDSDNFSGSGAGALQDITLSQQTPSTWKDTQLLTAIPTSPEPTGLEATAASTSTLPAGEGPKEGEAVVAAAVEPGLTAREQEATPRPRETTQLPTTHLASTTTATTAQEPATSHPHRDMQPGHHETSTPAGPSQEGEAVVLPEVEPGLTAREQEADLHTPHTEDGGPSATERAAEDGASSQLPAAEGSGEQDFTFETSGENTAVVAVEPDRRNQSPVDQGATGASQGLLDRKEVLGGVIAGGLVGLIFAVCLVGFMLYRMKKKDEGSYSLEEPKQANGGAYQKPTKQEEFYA
Nature of the assay: staining of Expi293 cells expressing the CD138 variant.

The next assay has as its target T3, mutated CD138 Clone 2 (human, UniProt P18827 23-310).
T3 construct: Leu107, Pro108, Glu109 mutated to Ala; Expressed on Expi293 cells
T3 chain: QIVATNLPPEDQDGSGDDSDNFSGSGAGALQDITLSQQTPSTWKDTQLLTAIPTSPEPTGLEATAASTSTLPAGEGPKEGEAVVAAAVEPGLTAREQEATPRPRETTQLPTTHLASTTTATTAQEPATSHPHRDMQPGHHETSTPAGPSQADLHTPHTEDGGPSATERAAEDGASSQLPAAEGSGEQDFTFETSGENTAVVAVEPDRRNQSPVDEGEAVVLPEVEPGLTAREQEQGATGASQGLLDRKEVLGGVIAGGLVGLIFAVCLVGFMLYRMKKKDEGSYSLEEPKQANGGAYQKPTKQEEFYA
Described as above.

The target in the next assay is T4, mutated CD138 Clone 4 (human, UniProt P18827 23-310).
T4 construct: Leu107, Pro108, Glu109 mutated to Ala; Expressed on Expi293 cells
T4 chain: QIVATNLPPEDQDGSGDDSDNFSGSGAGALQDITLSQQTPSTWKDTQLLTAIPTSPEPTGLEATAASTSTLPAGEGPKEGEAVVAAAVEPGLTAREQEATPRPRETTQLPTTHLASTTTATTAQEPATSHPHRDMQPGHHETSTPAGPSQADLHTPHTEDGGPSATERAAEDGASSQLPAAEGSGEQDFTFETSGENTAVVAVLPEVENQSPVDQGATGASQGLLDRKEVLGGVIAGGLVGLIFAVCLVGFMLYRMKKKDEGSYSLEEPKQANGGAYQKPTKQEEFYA
The description is as above.

The target of a further assay is T5, mutated CD138 Clone 5 (human, UniProt P18827 23-310).
T5 construct: Leu107, Pro108, Glu109 mutated to Ala; Expressed on Expi293 cells
T5 chain: T4 chain with L204E, E206D, V207R, E208R, S211L, V213E, D214V, Q215E
Described as above.

In assay [2] the target is T6, Peptide 2a (human).
T6 construct: also called Pep2a
T6 peptide: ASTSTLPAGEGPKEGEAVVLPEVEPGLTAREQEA
Nature of the assay: peptide binding ELISA. As for the experimental part:
(§1) As above, the monoclonal antibodies were tested for binding to a series of CD138 peptides in four-fold serial dilutions starting at 1 μg/mL. […] HRP-conjugated anti-human IgG-Fc antibody (1:5000 dilution) was used for detection. Antibody B-B4 was also tested as a reference. […] Reference antibody B-B4 only bound to Peptide 2a.
(In general: An ELISA detects its analyte on a solid surface through an enzyme-linked reagent.)

Another assay addresses T7, Pep5 (human).
T7 construct: also called Peptide 5
T7 peptide: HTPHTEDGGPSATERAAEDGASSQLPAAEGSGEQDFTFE
The assay can be described thus: peptide binding ELISA. As for the experimental part: as §1

Assay [3] deals with T8, recombinant CD138 extracellular domain (soluble CD138) (human, UniProt P18827 23-250).
T8 construct: also called soluble CD138 extracellular domain; biotinylated CD138
T8 sequence: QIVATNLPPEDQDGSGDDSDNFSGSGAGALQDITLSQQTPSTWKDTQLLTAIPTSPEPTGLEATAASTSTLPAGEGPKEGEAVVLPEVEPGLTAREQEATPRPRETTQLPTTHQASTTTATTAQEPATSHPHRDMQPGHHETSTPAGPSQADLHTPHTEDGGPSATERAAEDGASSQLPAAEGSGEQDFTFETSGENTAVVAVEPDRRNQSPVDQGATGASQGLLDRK
The assay can be described thus: ELISA, recombinant CD138 extracellular domain. As for the experimental part: (§2) Antibody B-B4 was included as a reference. Briefly, the monoclonal antibodies were tested for binding to recombinant CD138 extracellular domain consisting of amino acids 23-254 of human CD138, in four-fold serial dilutions starting at 1 μg/mL. HRP-conjugated anti-human IgG-Fc antibody (1:5000 dilution) was used for detection.

For a further assay, the target named is T9, Peptide 6E (human, biotin at the amino terminus).
T9 construct: also called Pep6e
T9 peptide: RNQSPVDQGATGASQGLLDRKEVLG
The assay can be described thus: bio-layer interferometry, biotinylated peptide. On the technique in general: BLI is a label-free optical method that tracks binding on a fibre tip over time.

The target in a further assay is T10, Peptide 2C (human, biotin at the amino terminus).
T10 construct: also called Pep2c
T10 peptide: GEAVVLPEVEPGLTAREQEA
The assay can be described thus: bio-layer interferometry, biotinylated peptide.

The target in assay [4] is T8, recombinant CD138 extracellular domain …. The assay can be described thus: ELISA, soluble CD138. Here is the method:
as §2

Assay [5] has as its target T11, cell surface CD138 (human CD138) (human, UniProt P18827 23-310).
T11 construct: whole, on cells; also called membrane CD138
T11 sequence (looked up): T4 chain with A85L, A86P, A87E, L204E, E206D, V207R, E208R
The assay can be described thus: flow cytometry, U266 cells. As for the experimental part: (§3) Binding of anti-CD138 antibodies to CD138 was tested by flow cytometry binding assay. Multiple myeloma cell lines RPMI 8226 (ATCC) and U266 (ATCC) were grown in RPMI1640 with 10% FBS. On the day of experiment, 0.25×10⁶ cells were washed with FACS buffer (PBS+0.5% BSA) and incubated with dilution series of anti-CD138 antibodies (starting 10 ug/ml) or hybridoma supernatants (starting with undiluted supernatant) for 30 min at 4° C. followed by incubation with goat-anti-human/mouse conjugated APC antibodies (BioLegend) for 30 min at 4° C. Fluorescence was detected using flow cytometer.
(§4) The afucosylated antibody variants were then tested for capacity to induce ADCC, as described above.
In general terms: In flow cytometry, cells or beads pass a laser one at a time.

Assay [6] concerns the target T12, Pep6 (human).
T12 construct: also called Peptide 6; Peptide-6
T12 peptide: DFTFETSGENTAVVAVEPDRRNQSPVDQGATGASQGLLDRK
The assay can be described thus: peptide binding ELISA. Here is the method: as §1

For assay [7], the target named is T8, recombinant CD138 extracellular domain …. Nature of the assay: ELISA (FIG. 18A).
The target of assay [8] is T1, Peptide 6B. Nature of the assay: ELISA with captured antibody (FIG. 21); also bio-layer interferometry (FIG. 22A). As for the experimental part:
Briefly, biotinylated peptides (Peptides 2A, 2D, 6B, and 6F; sequences shown in FIG. 22C) were used at 50 nM and captured on streptavidin capture biosensors. Antibodies were then run over the captured peptides at concentrations of 25 nM to 6.25 nM.

The target of assay [9] is T6, Peptide 2a. Nature of the assay: ELISA (FIG. 18B).
Assay [10] has as its target T11, cell surface CD138 (human CD138). The assay can be described thus: flow cytometry, U266 cells, afucosylated antibody. As for the experimental part: as §3, §4
Assay [11] addresses T12, Pep6. The assay can be described thus: ELISA (FIG. 18C).

Changes are numbered by the printed parent chain.

B1: antibody B-B4 (antibody, V domains shown)
VH: QVQLQQSGSELMMPGASVKISCKATGYTFSNYWIEWVKQRPGHGLEWIGEILPGTGRTIYNEKFKGKATFTADISSNTVQMQLSSLTSEDSAVYYCARRDYYGNFYYAMDYWGQGTSVTVSS
VL: DIQMTQSTSSLSASLGDRVTISCSASQGINNYLNWYQQKPDGTVELLIYYTSTLQSGVPSRFSGSGSGTDYSLTISNLEPEDIGTYYCQQYSKLPRTFGGGTKLEIK
notes: detected with anti-human IgG-Fc; afucosylated and biotinylated versions also used; also called B-B4-IgG1; MAb B-B4
With B1, the binding result was “no binding” in the assay with Peptide 6B [1]; “binds” in the assay with mutated CD138 Clone 1; “binds” in the assay with mutated CD138 Clone 2; “binds” with mutated CD138 Clone 4; “binds” in the assay with mutated CD138 Clone 5; “binds” with Peptide 2a [2].

B2: antibody CD002 (antibody, V domains shown)
VH: QVQLQQPGAELVKPGASVKLSCKASGFSFITYWMNWIKQRPGRGLEWIGRIHPSDSATQYNQKFKTKATLTVDKSSSTAYIQLSSLTSEDSAVYYCARSTEGAHWGQGTLVTVSA
VL: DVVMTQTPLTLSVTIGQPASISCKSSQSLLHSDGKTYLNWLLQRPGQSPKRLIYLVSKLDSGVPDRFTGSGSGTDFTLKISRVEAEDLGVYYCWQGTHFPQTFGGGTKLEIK
In the case of B2, the binding result (with Pep5; in assay [3]) was “binds” in each case.

B3: antibody 1610 (antibody, V domains shown)
VH: QVQLHQPGTSLVKPGASVKLSCKASGYNFSSYYMHWVKQRPGQGLEWIGTIHPSDSTTNCNQKFKGKATLTVDKSSRTAYMQLNSLTFEDSAVYYCANFVYWGQGTSVTVSS
VL: DIVITQDELSNPVTSGDSVSISCRSSKSLLYKDGKTYLNWFLQRPGQSPQLLIYVVSTRASGVSDRFSGSGSGTDFTLEISRVKAEDVGVYYCQQLVEYPYTFGGGTKLEIK
notes: Chimeric monoclonal antibody, murine variable regions and human IgG1
As for B3, the binding result in the assay with Peptide 6E was “no binding”; in the assay with Peptide 2C, “binds”; with Peptide 6B [1], “binds”; with Pep6 [6], “binds”; with Peptide 2a [2], “binds”. For the same molecule, the 50% effective concentration (EC50) worked out at 0.394 µg/mL in assay [4] and 0.0019 µg/mL in assay [5].

B4: antibody 2810 (antibody, V domains shown)
VH: B3 VH with N28S, C60Y
VL: B3 VL
As to B4, the binding result (in assay [7]; with Peptide 6B [8]; in the assay with Peptide 2a [9]; in assay [10]; with Pep6 [11]) was “binds” in each case.
